{
  "source": "the DeepSol protein solubility set",
  "data": [
    {"assay": "soluble on expression in E. coli; label from the status in PepcDB or PDB records", "values": [
      {"sequence": "MVARISVGKNLYGALAYNQNKVDEGGAKVLSAHLLRYPEDGRFRPDESVRQFLEWMPNHYRTEKPVIHISLNPHPDDVLTDGQLAEIGREYMQRLGYGNQPYLVFKHEDIGRHHIHIVSLRVDSEGRKVSDKFEYRRSKEITELLEQKYGLHPAEGRKKGEEWQLKPVDVAKGDIKRQIACTLKPLLELYSFRTMGELRALLSLYNIGVEEVKGEIGGRTYHGILYTALDGNGETAATPIKSSRLGRTAGAQQLDRKMRESAARIKSAPCRERLRPLVADALRQSVDERDFRDRLAKEQIDLVLRRNGTDRIYGVTFIDHRSRTVLNGSRLGKEFSANMLNGHFQEQPPNSLSPLLPPVPSAVASGNGEKIPGGLLSDMEPELNYVPRYPKLLKPDKKKRRRRYGRQD", "soluble on expression in E. coli": "not soluble"},
      {"sequence": "MVCQHNDELEALVKKAKKVTDKGEVASYIPALAKADKHDLSVAIYYSNNVCLSAGDVEKTFTLQSISKVLSLALVLMEYGKDKVFSYVGQEPTGDPFNSIIKLETVNPSKPLNPMINAGALVVTSLIRGRTVKERLDYLLSFIRRLTNNQEITYCREVAESEYSTSMINRAMCYYMKQYGIFEDDVEAVMDLYTKQCAIEMNSLDLAKIGSVFALNGRHPETGEQVISKDVARICKTFMVTCGMYNASGEFAIKVGIPAKSGVSGGIMGISPYDFGIGIFGPALDEKGNSIAGVKLLEIMSEMYRLSIFLEHHHHHH", "soluble on expression in E. coli": "soluble"},
      {"sequence": "MVDGEGITPKTCSEDIIKDLLNDVKSSEKPFSVDKLAGCDQTDFVGKRPKKHHRHKSKKSKKVRRRSKTWSSSRSRSRSRSRSRGRSQERRRSRKSRKSRSRSRLKHREEKIEKKNLEKAPKNELIPQAPSTENGKPKEFKEPPRKDEADDLPLGADFSTPLVKKETKLAISITTVLPKAENKKEVEDGEIEEIAYGDGDFKEPEGIEKNLENKNICENGNLDNSENEKSKEKDKNRKKEKTERKRKRSHSSSDRRGRRTSKESRRRSRSRDTHRTRRRSPERSRRSTETRNERPERPSRWRSRSRERKEYDSYRRRRSRSREVIDKEKLLAIAKTKRAEMMSNGDRDSASIEDFVTYCKKLQRRQEREKRREAGHDVSDHDSDRETVRYKHPYAMPKEPIRINIVTATSANLAQKAITGPEEPTQLGAAQLRIVFPVSSGAVHKENAEWVPVEKEDVPKSCSVEQKKHVALTSLEIDRCRAQGIPVAPAPVPKFLNSILPPPPAPPQFLPNPTDSFRPPTPPPLPSVLYVPNKDQMILKEPKDIPIPAPSDIGKVLKQRTEAQRKVLSTPNDFDAHRALREANEQISLWAALKSLPGEYTGTTGLRLLTADELQPQNPKYHAWVKKDQFRNAAPATGGIGRLMLEKMGWRPGEGLGKDATGNLEPLMLDVKSDRKGLIAEEEMSIKQRNKINAQNNVPVDLSNKNPISLIMELCAKRRWNPPSFSCEESGADHLKMFVWTIVINDVEYRPMCGSKQKKEGKAVAAQVALQSLGVLPMDPNLPVYM", "soluble on expression in E. coli": "not soluble"},
      {"sequence": "MVDIEALQKAIGVTSLSYDEDDDDDDENDAFYSSSHRVSHNYNQPPLPPIPTRDDMSNYSSSRNTPLVRRD", "soluble on expression in E. coli": "not soluble"},
      {"sequence": "MVDSDDDGDRRRDKFARERRDEDYRRGGGGFNRYDNKRPGGRRDDYQVKRSRGDDADDSFDPVSRSGNGSDLPTESDSIYSGPLQTFKKFLTSQEDDISEEDAIKKYNEYKTEHRKHQLERFFRAHKDEEWFRLKYKPDDAKKLREAHLENVQKRLQVFNELKEQGQFNKFSLDFGDAEAIIRMLDSVVVKLENGTEDELKAVLAQKLEDESLADIKKDENGNGTEQPKEEPEVKQESGATEELEEGAIEDGTEKSSNKVNIHRTCSVFLRNIPPGLTYEELEGLCKKSPGFLRLALTDGIAERKFYRRGWATFKRDINIKEICWALNAHRLRETDLNAIINRDITRRVRTNNGIASHKQVAINDLKLAVKLTVLYDKKIGLFNAADEADADREMDIRMGVDLVAASTNPLIKEVKSLVPHDVLNDISEEEAELLGVSNGGEAPAEKIRFERDDNILKALDLLIVYLRIVHSIDFYNHGHYAQEDSMPNRCGLIHVRGQPPSGVSITTDEDGALVVPQKFVNDFISGFNSRIEKGLIEKQYVSEEELEKMGKKDGEKEVEAFIQKNTVELAKDKWLCPLSGKKFKGPEFIRKHLQSKHEDKLEEARAEADFFNNYLADAQRPVDCEPKQAPRDDHRGGGGGERGGYGRERDDDRGPGGGGRNSFGGGGYDRRPQFPPRHSLGGRGGGGRYFEDAPRRQPVSYRDLDAPDDIP", "soluble on expression in E. coli": "not soluble"},
      {"sequence": "MVEEFKVTPWEVEGVVDYDKLIKHFGTSPLTEDLLEKTAELTKSELPIFFRRKFFFSHRDYDLILKDYEEGRGFFLYTGRGPSGPMHIGHIIPFFATKWLQEKFGVNLYIQITDDEKFLFKENLTFDDTKRWAYDNILDIIAVGFDPDKTFIFQNSEFTKIYEMAIPIAKKINFSMAKAVFGFTEQSKIGMIFFPAIQIAPTFFERKRCLIPAAIDQDPYWRLQRDFAESLGYYKTAALHSKFVPSLTSLSGKMSASKPETAIYLTDSPEDVEKKVWKFTLTGGRPTLKEQREKGGEPEKCVVFKWLEIFFEEDDKKLKERYYACKNGELTCGECKRYLISKIQEFLKEHQRRRKKAEKLVEKFKYTGKLAQEMWNEAIPEPLKRSHHHHHH", "soluble on expression in E. coli": "soluble"},
      {"sequence": "MVEIFNEIMQRVKEAETIIIHRHVRPDPDAYGSQLGLKLYLERKFPEKNIYATGEAEPSLSFIGDLDEIDDSVYSDALVIVCDTANAPRIDDQRYLNGQSLIKIDHHPATDQYGDVNFVNTEASSTSEIIFDFISHFNDLSIIDEHVARVLYLGIVGDTGRFLFSNTSPHTMEVASQLLAYPFNHNAELNKMSEKDPKLMPFQGYVLQNFELSDSHEYCQIKITNDVLKQFDIQPNEASQFVNTVADISGLKIWMFGVDEGDQIRCRIRSKGITINDVANQFGGGGHPNASGVSVYSWDEFEELAQALRQKLLEHHHHHH", "soluble on expression in E. coli": "soluble"},
      {"sequence": "MVEKPKDIKIAQESFPILVAENIYHCGYHSEKSYGAASYLIQHSQGNILVDSPRFTPPLVKRIEAMGGIKYMYLTHQDDVADHQKFAEHFQCQRILHTDEISAGTRNVEIQLTGLEPFPLQPDVLIIPVPGHTKGHTVLLYKNKFLFTGDHLAWSENRHQLTAFRDVCWYSWAEQIKSMRRLADYSFDWVLPGHGRRFHADVETMRQQMHKCIELMTDERQPLTFNSLEHHHHHH", "soluble on expression in E. coli": "soluble"},
      {"sequence": "MVFKSKKDKFSEMLMNVSENLKEGAQFFVEYKIKNASDLKEFSMRMKEYESKGDSFIHEIIMELNKAFITPIEREDILQLAMSMDDVLDGLDHSAGLFEMYSITEADEYMIKFVEAINQCAIEIANSVELMSNKKLVDIRTNAIKIKDYESQCDDIRRHAIKNLFSREKDPIKIIQFKEIYEELEEVADSCQSVANVLETIIMKNALEHHHHHH", "soluble on expression in E. coli": "soluble"},
      {"sequence": "MVGGMMESYSKFHTILNELKHSAAQFDRQRGEHHRPLFDEVLFHCHGKLLTPCVEEAHSTLQALIREKESGRLTALRAEYLSERLLAQIAALTRELSTQNVRRNEPKPHAYFKKPINELYQELAQHQDWERRLMDLVRDKALLLEQASATEKAAAQQALLQSEQRLNRCREAKIKIEKRITTQERKA", "soluble on expression in E. coli": "not soluble"},
      {"sequence": "MVGIHQEVWLEVDLEFTKKMKIPVVRRDLGGGTVVITPGEHDYFIVVRQEDAPRNPSELYKKFLTPIVNVLRSYGLKADLRDQDIVVNGKKISGNGAMTHGNSIVIAGNILLSLDIDL", "soluble on expression in E. coli": "soluble"},
      {"sequence": "MVGIQVQEVMTDKYAKIDISAPLSEAIGIIEKEDPDLILVFDDNVYKGVLTQDLIIRSHLKWDPTKAKVRDIYKPAPVVKPTDDLSHAAKLLLETDLRSLPVGENKAEIIGVISDIALLERVVAEEFGKKKVEEFMTKDVITLTPDDTVAKALAVMRDHGISRIPIVNEEGKLEGLVTLHDLILRFIKPRFKAQTGELVGEKIPPFSMKLREAMIRGVITILPTATVREAVATMKDNDIDGLVVVDEGNKVVGILTVKDLLLPISRMVEKEAKFYLQLGGDASALSDFTRERIINDIKKFVDGYSDLLGNEGIIYLYIRRFNEKFRGVHLYQARMRIVTDKGVFIARGETWGAIQAVHDAIRAIERQLLQKAELERDIRYAKRFIEKLELWR", "soluble on expression in E. coli": "soluble"},
      {"sequence": "MVGQREPAPVEEVKPAPEQPAEPQQPVPTVPSVPTIPQQPGPIEHEDQTAPPAPHIRHYDWNGAMQPMVSKMLGADGVTAGSVLLVDSVNNRTNGSLNAAEATETLRNALANNGKFTLVSAQQLSMAKQQLGLSPQDSLGTRSKAIGIARNVGAHYVLYSSASGNVNAPTLQMQLMLVQTGEIIWSGKGAVSQQLEHHHHHH", "soluble on expression in E. coli": "soluble"},
      {"sequence": "MVHRLDISSEMIAFFKNCAKNGNYTPFLSNYRGLIRDIGQQLEKVSLPNNSLEKLMVKHFANCFVALHTMNSLDELAASAPKFVADFKQAIGNKKTLKELHDNFKSSDTKQQGLNRKLTNKMERNRSEMKQFKMEMMSSFNGLKQNMDTKMEEMMQLMRALIQDLTSQKLAQNPESSKCSFPNYGLEIQKKFEDMIQNMKSQTGSVFELKLKEIEQLEAEAENTIPKIPKKAAGSSSEH", "soluble on expression in E. coli": "not soluble"},
      {"sequence": "MVHYKVSYFPIRGAGEIARQILAYAGQDFEDNRIPKEEWPAVKPSTPFGQLPLLEVDGKVLAQSHAIARYLARQFGINGKCAWEEAQVNSVADQFKDYLNEVRPYFMVKMGFAEGDLDALAKDVFLPGFKKHYGFFANFLKSAGSGYLVGDSLTFVDLLVAQHTADLLAANAALLDEFPQFKAHQEKVHSNANIKKWLETRPVTPF", "soluble on expression in E. coli": "not soluble"},
      {"sequence": "MVIGVPKEIKTLENRVALTPGGVESLVRRGHTVLVERGAGEGSGLSDAEYARAGAELVGREEAWGAEMVVKVKEPLPEEYGFLREGLILFTYLHLAADRGLTEAMLRSGVTGIAYETVQLPDGTLPLLVPMSEVAGRMAPQVGAQFLEKPKGGRGVLLGGVPGVAPASVVILGGGTVGTNAAKIALGMGAQVTILDVNHKRLQYLDDVFGGRVITLTATEANIKKSVQHADLLIGAVLVPGAKAPKLVTRDMLSLMKEGAVIVDVAVDQGGCVETIRPTTHAEPTYVVDGVVHYGVANMPGAVPRTSTFALTNQTLPYVLKLAEKGLDALLEDAALLKGLNTHKGRLTHPGVAEAFGLPYTPPEEALRG", "soluble on expression in E. coli": "soluble"},
      {"sequence": "MVIHIPVRESNYIEKILLPVMVYFIVNVKQNEWIYTILKEKFFYEEQEECHQILHMAHEILKGRRKGVAQDLTRNAFESYIKSSLNNWLCDPLSFSFSSYIRFRLRTYREMVAKLAEVAIDEYKMEQEYQMFIETLRQQVSSRKSRLSCVHLIFDESFIFYDDKGRRLKQEKLVQYIDEELLKQNDVYIDTKVIAPLLSISPKKIYLYTKEQDHNMIITLRNVFQERVQLHGLHDFERNVKNLKNKGNALDFLSFLEHHHHHH", "soluble on expression in E. coli": "soluble"},
      {"sequence": "MVIILAMTNREKFKVLADQIKISNQLEQDILEQGELTRIDVSNKNRTWTFQISLPHFLSHEDYLLFTHAIEEEFKEIATVAIDFSIKDTNNQDEFALKYFGHCIDQTRLSPKVKGQLKQKKLIMSGNVLKVLVSNDIERNHFDKACNGSLVKA", "soluble on expression in E. coli": "not soluble"},
      {"sequence": "MVIMSSTFMGYERENGRIGTRNHVLIIPVDDLSNTVAAAVENNIFGTRAILHPYGRLQFGADLDLTFRTLAGYGRNPNVASAIVVGIEDNWTNRIADQISQTGKHVETVSIEGSGDLKAIEKASRLAKEMAQESSTKTRKEFDVSNLIVSTKCGESDTTSGLASNPTVGVVFDRLVDEGATVIFGETSELTGAEKYIAEKMANNELKDKFMKIFNDYQDVIKSQGVDLLGSQPTEGNIKGGLSTIEEKALGNIQKAGTKKITGVLDYAEEPKSKGLNFMNTSSAAAEAVTLFAAAGAVVHLFTTGQGNIVGNHILPVIKTTANPKTAKNMAEHIDLDLSGLLKFEYTLKDAGDKLYNLLLETASGKLTSNEVLKHYEFALTKLYISA", "soluble on expression in E. coli": "not soluble"},
      {"sequence": "MVKATNVDLSLEDIISKTRKTTGSIQKKSFGGARRGNTRPTGLPRRSGGSGGWKDLDAVQNHGISSRGNDSKVIRVNISNLAPTVISSDLEELFGDYRLSSVSVNFNEHGDSLGTGDISLTKRDAERLVQKFSGVALDGKIMKFAVIDSSNMAGRVDFGNRSRSSPGRSSRGFQSGPRRNNGKPEDFLRDGVHAGDIKRGGAGRGGFRKGGRGGARDAKPKKTEAELDAELEAYMAKRNA", "soluble on expression in E. coli": "soluble"}
    ]}
  ]
}
